From patent US20090270318A1 come the findings set out here.

Test [1] concerns the target CXCL8 receptors on bovine peripheral blood neutrophils. Put plainly: displacement of 20 pM 125I-CXCL8 from 10^6 bovine neutrophils, 45 min on ice.
For test [2] the target is unchanged. Put plainly: biotCXCL8 binding inhibition on bovine neutrophils; 10 ng/ml unlabeled CXCL8 2 h at 4 C, wash, then 1 ug/ml biotCXCL8; cell ELISA. In general terms: An ELISA detects its analyte on a solid surface through an enzyme-linked reagent.
The target is the same in test [3]. The test is described as follows: 1000 ng/ml biotCXCL8 on medium-treated bovine neutrophils; streptavidin-enzyme and ABTS; ELISA plate reader.
Test [4] has the same target. Put plainly: biotCXCL8 binding inhibition on bovine neutrophils; 10 ng/ml analogue 2 h at 4 C, wash, then 1 ug/ml biotCXCL8; cell ELISA.
Test [5] has the same target. Put plainly: displacement of 20 pM 125I-CXCL8 from bovine neutrophils; reference is unlabeled wildtype CXCL8.
Test [6] shares this target. Put plainly: cell-based or functional assay.

“And” between values parts separate entries of the source, which are not always exact repeats. Equal entries are not always repeated.

By IC50 is commonly meant the concentration at which inhibition is half-maximal. Read a low IC50 as inhibition by little substance. In turn, “bovine CXCL8 (wild type, unlabeled) (from UniProt P79255 23-101) (ligand)” had an IC50 in test [1] of 120 pM. Besides, the percent of ^biotCXCL8 binding blocked in test [2] worked out at 30%.

“biotinylated CXCL8 (from UniProt P79255 23-101) (ligand)” registered an OD405 in test [3] of 0.5 to 0.6 OD405.

B1: bovine CXCL8(3-74)K11R/G31P (ligand)
chain: TELRCQCIRTHSTPFHPKFIKELRVIESPPHCENSEIIVKLTNGNEVCLNPKEKWVQKVVQVFVKRAEKQDP
Consider B1, for which, in test [4], the percent of ^biotCXCL8 binding blocked was determined as 95%. The fold more effective than wildtype CXCL8 in inhibiting 125I-CXCL8 binding in test [5] amounted to 100 fold. In test [6], this molecule had an IC50, inhibition of bovine neutrophil chemotaxis to 1 µg/ml (129 nM) CXCL8 of 110 pM; an agonist activity: chemotaxis of bovine neutrophils to 100 ng/ml analogue, as percent of the response to 1 ng/ml CXCL8 of 13.9%; an agonist activity: chemotaxis of bovine neutrophils to 100 ng/ml analogue, as percent of the response to 100 ng/ml CXCL8 of 5.4%; a concentration for complete blocking of bovine neutrophil chemotaxis to 1 µg/ml CXCL8 of 10 nM. For the same molecule, in test [6], the concentration for complete inhibition of bovine neutrophil chemotaxis to human CXCL5, CXCL1 or CXCL8 is 3 nM and 20 nM; the concentration reducing bovine neutrophil chemotaxis to 1 ng/ml hCXCL1 to 50% worked out at 0.26 nM; the concentration reducing bovine neutrophil chemotaxis to 1 ng/ml hCXCL5 to 50% came out at 0.06 nM; the concentration reducing bovine neutrophil chemotaxis to 10 ng/ml hCXCL8 by 50% worked out at 0.04 nM. The same molecule registered a reduction of bovine neutrophil chemotactic response to 1 µg/ml (129 nM) CXCL8 by 12.9 pM analogue in test [6] of 33%. This molecule also returned an IC50 in test [1] of 4 pM.

B2: bovine CXCL8(3-74)K11R/P32G (ligand)
chain: TELRCQCIRTHSTPFHPKFIKELRVIESGGHCENSEIIVKLTNGNEVCLNPKEKWVQKVVQVFVKRAEKQDP
Regarding B2, the percent of ^biotCXCL8 binding blocked in test [4] stood at 48%. Also, in test [6], the agonist activity: chemotaxis of bovine neutrophils to 100 ng/ml analogue, as percent of the CXCL8 response is 38.3%.
